We go through four molecules from article PMC10980755, “Cooperative nucleic acid binding by Poly ADP-ribose polymerase 1”.

In series [1] the target is T1, ∆CAT-PARP1 (UniProt P09874 1-662, del663-1014). Nature of the series: EMSA; monomer-equivalent Kmono; n=1.8±0.1; ω=86.1±20.3; EMSA: 25 mM Tris pH 8.0, 150 mM NaCl, 50 mM arginine, 1 mM EDTA, 0.1 mM TCEP, 1 mg/mL BSA, 20 °C, 30 min; 0.06 µM nucleic acid. The conditions noted are these: protein: recombinant; tags: His; label: 5'-32P. In general terms: Mobility shift assays separate free from complexed probe on a gel.

Series [2] addresses T2, WT-PARP1 (full-length) (UniProt P09874 1-1014). Nature of the series: EMSA; monomer-equivalent Kmono; n=1.9±0.2; ω=67.3±10.8; EMSA: 25 mM Tris pH 8.0, 150 mM NaCl, 50 mM arginine, 1 mM EDTA, 0.1 mM TCEP, 1 mg/mL BSA, 20 °C, 30 min; 0.06 µM nucleic acid. As to conditions: protein: recombinant; tags: His; label: 5'-32P.
The target of series [3] is T3, ∆Zn1∆Zn2-PARP1 (UniProt P09874 216-1014, del1-215). Nature of the series: EMSA; monomer-equivalent Kmono; n=2.9±0.2; ω=104.3±31.1; EMSA: 25 mM Tris pH 8.0, 150 mM NaCl, 50 mM arginine, 1 mM EDTA, 0.1 mM TCEP, 1 mg/mL BSA, 20 °C, 30 min; 0.06 µM nucleic acid. As to conditions: protein: recombinant; tags: His; label: 5'-32P.
The target of series [4] is T2, WT-PARP1 (full-length). The series can be described thus: EMSA; monomer-equivalent Kmono; n=4.1±0.2; ω=82.6±20.5; EMSA: 25 mM Tris pH 8.0, 150 mM NaCl, 50 mM arginine, 1 mM EDTA, 0.1 mM TCEP, 1 mg/mL BSA, 20 °C, 30 min; 0.06 µM nucleic acid. The conditions noted are these: protein: recombinant; tags: His; label: 5'-32P on one strand (EMSA); unlabeled in AUC; blunt.
Series [5] has as its target T1, ∆CAT-PARP1. The series can be described thus: EMSA; monomer-equivalent Kmono; n=3.9±0.2; ω=139.9±59.5; EMSA: 25 mM Tris pH 8.0, 150 mM NaCl, 50 mM arginine, 1 mM EDTA, 0.1 mM TCEP, 1 mg/mL BSA, 20 °C, 30 min; 0.06 µM nucleic acid. The conditions noted are these: protein: recombinant; tags: His; label: 5'-32P on one strand (EMSA); unlabeled in AUC; blunt.
Series [6] concerns the target T3, ∆Zn1∆Zn2-PARP1. The series can be described thus: sedimentation velocity AUC; 10 mM Tris pH 8.0, 100 mM NaCl, 4 °C; 1.8 µM DNA, 7.2 µM protein; reaction boundary, rapid equilibrium; EMSA: 25 mM Tris pH 8.0, 150 mM NaCl, 50 mM arginine, 1 mM EDTA, 0.1 mM TCEP, 1 mg/mL BSA, 20 °C, 30 min; 0.06 µM nucleic acid. The conditions noted are these: protein: recombinant; tags: His; label: 5'-32P on one strand (EMSA); unlabeled in AUC; blunt.

In series [7] the target is T3, ∆Zn1∆Zn2-PARP1. Nature of the series: EMSA; monomer-equivalent Kmono; n=1.7±0.1; ω=56.7±14.4; EMSA: 25 mM Tris pH 8.0, 150 mM NaCl, 50 mM arginine, 1 mM EDTA, 0.1 mM TCEP, 1 mg/mL BSA, 20 °C, 30 min; 0.06 µM nucleic acid. As to conditions: protein: recombinant; tags: His; label: 5'-Cy3.
The target in series [8] is T1, ∆CAT-PARP1. Nature of the series: EMSA; monomer-equivalent Kmono; n=1.9±0.1; ω=49.0±12.9; EMSA: 25 mM Tris pH 8.0, 150 mM NaCl, 50 mM arginine, 1 mM EDTA, 0.1 mM TCEP, 1 mg/mL BSA, 20 °C, 30 min; 0.06 µM nucleic acid. As to conditions: protein: recombinant; tags: His; label: 5'-Cy3.
The target in series [9] is T2, WT-PARP1 (full-length). Nature of the series: EMSA; monomer-equivalent Kmono; n=2.2±0.1; ω=51.4±10.1; EMSA: 25 mM Tris pH 8.0, 150 mM NaCl, 50 mM arginine, 1 mM EDTA, 0.1 mM TCEP, 1 mg/mL BSA, 20 °C, 30 min; 0.06 µM nucleic acid. The conditions noted are these: protein: recombinant; tags: His; label: 5'-Cy3.
Series [10] has as its target T1, ∆CAT-PARP1. The series can be described thus: EMSA; Kmono; n=1.0±0.1; EMSA: 25 mM Tris pH 8.0, 150 mM NaCl, 50 mM arginine, 1 mM EDTA, 0.1 mM TCEP, 1 mg/mL BSA, 20 °C, 30 min; 0.06 µM nucleic acid. The conditions noted are these: protein: recombinant; tags: His; label: 5'-32P.
Series [11] has as its target T2, WT-PARP1 (full-length). Nature of the series: EMSA; monomer-equivalent Kmono; n=1.8±0.1; ω=24.7±8.6; EMSA: 25 mM Tris pH 8.0, 150 mM NaCl, 50 mM arginine, 1 mM EDTA, 0.1 mM TCEP, 1 mg/mL BSA, 20 °C, 30 min; 0.06 µM nucleic acid. The conditions noted are these: protein: recombinant; tags: His; label: 5'-32P.

T3 sequence (P09874 216-1014, stated change not applied): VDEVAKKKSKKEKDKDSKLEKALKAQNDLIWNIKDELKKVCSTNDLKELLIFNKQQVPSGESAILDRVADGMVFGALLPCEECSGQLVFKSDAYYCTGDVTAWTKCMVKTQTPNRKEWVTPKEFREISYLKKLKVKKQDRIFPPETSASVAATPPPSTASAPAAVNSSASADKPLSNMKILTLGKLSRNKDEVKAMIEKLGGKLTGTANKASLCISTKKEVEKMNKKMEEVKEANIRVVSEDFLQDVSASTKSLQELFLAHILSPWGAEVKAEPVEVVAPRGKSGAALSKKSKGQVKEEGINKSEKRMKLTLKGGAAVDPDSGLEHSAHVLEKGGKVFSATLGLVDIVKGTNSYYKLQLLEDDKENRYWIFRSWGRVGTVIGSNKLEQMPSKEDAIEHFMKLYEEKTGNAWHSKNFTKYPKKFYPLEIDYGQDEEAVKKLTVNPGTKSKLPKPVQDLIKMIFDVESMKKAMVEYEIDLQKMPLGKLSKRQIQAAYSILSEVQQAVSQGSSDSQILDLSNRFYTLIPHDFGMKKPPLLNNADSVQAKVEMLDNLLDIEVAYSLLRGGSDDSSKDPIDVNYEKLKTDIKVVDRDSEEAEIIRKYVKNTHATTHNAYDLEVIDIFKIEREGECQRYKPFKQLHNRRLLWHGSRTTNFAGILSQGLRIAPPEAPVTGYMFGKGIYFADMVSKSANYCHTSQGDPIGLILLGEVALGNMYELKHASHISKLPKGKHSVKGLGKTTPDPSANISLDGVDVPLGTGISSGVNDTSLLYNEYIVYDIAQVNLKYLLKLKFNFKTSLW
T1 sequence (P09874 1-662, stated change not applied): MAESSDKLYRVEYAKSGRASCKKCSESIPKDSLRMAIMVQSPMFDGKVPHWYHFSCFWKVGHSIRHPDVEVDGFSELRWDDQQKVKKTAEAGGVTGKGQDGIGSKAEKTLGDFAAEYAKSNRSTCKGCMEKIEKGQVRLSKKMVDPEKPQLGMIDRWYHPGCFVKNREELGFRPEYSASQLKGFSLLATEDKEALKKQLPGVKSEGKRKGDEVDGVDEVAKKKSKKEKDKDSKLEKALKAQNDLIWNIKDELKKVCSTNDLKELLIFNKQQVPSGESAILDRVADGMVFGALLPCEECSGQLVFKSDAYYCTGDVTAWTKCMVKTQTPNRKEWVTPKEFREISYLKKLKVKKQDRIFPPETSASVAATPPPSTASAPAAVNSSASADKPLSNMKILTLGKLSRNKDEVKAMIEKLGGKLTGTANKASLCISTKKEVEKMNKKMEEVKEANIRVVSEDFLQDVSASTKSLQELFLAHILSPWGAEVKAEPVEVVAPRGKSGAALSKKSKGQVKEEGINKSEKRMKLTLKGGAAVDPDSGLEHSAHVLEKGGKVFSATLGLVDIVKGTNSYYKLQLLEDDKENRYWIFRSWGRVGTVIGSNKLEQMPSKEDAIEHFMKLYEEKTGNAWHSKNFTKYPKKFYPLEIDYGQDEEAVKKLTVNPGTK
T2 sequence (P09874 whole entry): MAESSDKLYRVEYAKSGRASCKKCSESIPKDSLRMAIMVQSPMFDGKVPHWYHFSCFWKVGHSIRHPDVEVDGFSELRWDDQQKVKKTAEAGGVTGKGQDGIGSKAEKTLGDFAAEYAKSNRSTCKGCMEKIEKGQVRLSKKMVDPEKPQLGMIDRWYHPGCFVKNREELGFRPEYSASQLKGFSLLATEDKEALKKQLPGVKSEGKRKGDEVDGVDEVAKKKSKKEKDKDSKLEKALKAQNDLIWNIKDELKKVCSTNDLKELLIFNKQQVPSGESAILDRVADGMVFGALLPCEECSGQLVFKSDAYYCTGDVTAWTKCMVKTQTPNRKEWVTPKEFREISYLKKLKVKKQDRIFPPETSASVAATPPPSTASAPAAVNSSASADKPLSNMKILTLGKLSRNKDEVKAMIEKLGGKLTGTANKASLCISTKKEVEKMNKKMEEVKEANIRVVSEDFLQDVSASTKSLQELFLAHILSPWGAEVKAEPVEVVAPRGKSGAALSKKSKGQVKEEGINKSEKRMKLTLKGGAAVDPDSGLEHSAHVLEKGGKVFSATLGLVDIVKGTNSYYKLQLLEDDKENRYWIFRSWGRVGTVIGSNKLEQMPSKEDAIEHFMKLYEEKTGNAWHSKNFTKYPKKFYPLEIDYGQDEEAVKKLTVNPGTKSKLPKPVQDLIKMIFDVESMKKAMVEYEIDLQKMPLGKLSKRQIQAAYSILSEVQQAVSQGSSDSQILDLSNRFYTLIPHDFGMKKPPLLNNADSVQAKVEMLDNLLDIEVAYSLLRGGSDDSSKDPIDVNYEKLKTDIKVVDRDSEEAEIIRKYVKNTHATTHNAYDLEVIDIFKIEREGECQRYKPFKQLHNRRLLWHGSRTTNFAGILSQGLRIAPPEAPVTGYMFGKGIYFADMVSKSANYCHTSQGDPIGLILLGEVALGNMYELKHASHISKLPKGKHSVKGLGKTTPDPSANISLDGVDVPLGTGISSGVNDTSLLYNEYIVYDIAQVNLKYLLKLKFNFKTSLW

As for UUUUUUUUUUUUUUUUUUUU (ssRNA) [U20 RNA], the values for the Ka in the series with ∆CAT-PARP1 [1], with WT-PARP1 (full-length) [2] and in the series with ∆Zn1∆Zn2-PARP1 [3] were 6.6e+06 M⁻¹, 2.1e+08 M⁻¹ and 9.1e+07 M⁻¹, respectively.

B1: ds19-mer DNA (dsDNA)
DNA 1: CGTACGCGGGTTTAAACGA
DNA 2: TCGTTTAAACCCGCGTACG
With B1, the values for the Ka in the series with WT-PARP1 (full-length) [4] and with ∆CAT-PARP1 [5] were 1.2e+07 M⁻¹ and 1.3e+07 M⁻¹, respectively. Moreover, the binding result in the series with ∆Zn1∆Zn2-PARP1 [6] is “binds”.

With TTTTTTTTTTTTTTTTTTTT (ssDNA) [Cy3-T20 DNA], the Ka in the series with ∆Zn1∆Zn2-PARP1 [7] stood at 2.5e+06 M⁻¹; with ∆CAT-PARP1 [8] it was 3.3e+06 M⁻¹; with WT-PARP1 (full-length) [9] it was 1.3e+07 M⁻¹.

Take CGTACGCGGGTTTAAACGA (ssDNA) [ss19-mer DNA]: the Ka with ∆CAT-PARP1 [10] was determined as 114000 M⁻¹; with WT-PARP1 (full-length) [11] it was 3.3e+06 M⁻¹.
